Interaction score data for three molecules are collected here from publication PMC10397247.

The target of one assay is T1, 4H2702-bH.
T1 chain: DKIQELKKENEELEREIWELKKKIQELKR
Briefly: two-hybrid library CCNG1.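 Note: natural log of median RNA to DNA barcode read ratio; higher means stronger binding.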

For a further assay, the target named is T2, 4H797-bH.
T2 chain: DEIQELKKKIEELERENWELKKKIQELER
Kind of assay: two-hybrid library CCNG1.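 Note: natural log of median RNA to DNA barcode read ratio; higher means stronger binding.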

The target in a further assay is T3, 4H953-bH.
T3 chain: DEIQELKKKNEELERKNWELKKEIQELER
Briefly: two-hybrid library CCNG1.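 Note: natural log of median RNA to DNA barcode read ratio; higher means stronger binding.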

A further assay concerns the target T4, 4H3010-bH.
T4 chain: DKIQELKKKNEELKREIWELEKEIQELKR
Kind of assay: two-hybrid library CCNG1.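 Note: natural log of median RNA to DNA barcode read ratio; higher means stronger binding.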

A further assay concerns the target T5, 4H3427-bH.
T5 chain: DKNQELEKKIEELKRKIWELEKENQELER
Briefly: two-hybrid library CCNG1.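 Note: natural log of median RNA to DNA barcode read ratio; higher means stronger binding.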

The target of a further assay is T6, 4H855-bH.
T6 chain: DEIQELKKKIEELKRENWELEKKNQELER
Briefly: two-hybrid library CCNG1.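 Note: natural log of median RNA to DNA barcode read ratio; higher means stronger binding.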

For a further assay, the target named is T7, 4H3112-bH.
T7 chain: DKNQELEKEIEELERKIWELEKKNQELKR
Briefly: two-hybrid library CCNG1.

A further assay concerns the target T8, 4H918-bH.
T8 chain: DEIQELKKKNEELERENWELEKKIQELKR
Briefly: two-hybrid library CCNG1.

Another assay addresses T9, 4H4073-bH.
T9 chain: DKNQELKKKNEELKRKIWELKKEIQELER
Briefly: two-hybrid library CCNG1.

The target in a further assay is T10, 4H968-bH.
T10 chain: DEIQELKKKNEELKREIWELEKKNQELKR
Briefly: two-hybrid library CCNG1.

For a further assay, the target named is T11, 4H575-bH.
T11 chain: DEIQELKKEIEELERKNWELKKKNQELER
Briefly: two-hybrid library CCNG1.

In the next assay the target is T12, 4H683-bH.
T12 chain: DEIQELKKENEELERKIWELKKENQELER
Briefly: two-hybrid library CCNG1.

In a further assay the target is T13, 4H754-bH.
T13 chain: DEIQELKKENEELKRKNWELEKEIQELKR
Kind of assay: two-hybrid library CCNG1.

A further assay has as its target T14, 4H457-bH.
T14 chain: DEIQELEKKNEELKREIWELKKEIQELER
Kind of assay: two-hybrid library CCNG1.

The target in a further assay is T15, 4H3926-bH.
T15 chain: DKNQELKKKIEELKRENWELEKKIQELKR
Kind of assay: two-hybrid library CCNG1.

The next assay has as its target T16, 4H780-bH.
T16 chain: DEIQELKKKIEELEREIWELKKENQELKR
Briefly: two-hybrid library CCNG1.

The target of another assay is T17, 4H346-bH.
T17 chain: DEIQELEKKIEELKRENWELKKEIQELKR
Kind of assay: two-hybrid library CCNG1.

The next assay concerns the target T18, 4H3865-AA.
T18 chain: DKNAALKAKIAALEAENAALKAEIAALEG
Briefly: two-hybrid library CCmax. The conditions noted are these: mean of both orientations.

Another assay deals with T19, 4H32-AA.
T19 chain: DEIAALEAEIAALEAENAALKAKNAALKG
Briefly: two-hybrid library CCmax. As to conditions: mean of both orientations.

Another assay addresses T20, 4H2198-AA.
T20 chain: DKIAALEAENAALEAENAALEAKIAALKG
Briefly: two-hybrid library CCmax. The conditions noted are these: mean of both orientations.

The next assay addresses T21, 4H2907-AA.
T21 chain: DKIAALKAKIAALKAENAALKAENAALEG
Kind of assay: two-hybrid library CCmax. As to conditions: mean of both orientations.

A further assay deals with T22, 4H1874-AA.
T22 chain: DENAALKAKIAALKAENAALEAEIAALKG
Briefly: two-hybrid library CCmax. As to conditions: mean of both orientations.

The next assay concerns the target T23, 4H1845-AA.
T23 chain: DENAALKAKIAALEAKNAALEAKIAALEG
Briefly: two-hybrid library CCmax. The conditions noted are these: mean of both orientations.

Another assay concerns the target T24, 4H3697-AA.
T24 chain: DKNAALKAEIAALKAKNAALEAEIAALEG
Kind of assay: two-hybrid library CCmax. As to conditions: mean of both orientations.

The next assay concerns the target T25, 4H1629-AA.
T25 chain: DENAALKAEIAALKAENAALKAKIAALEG
Kind of assay: two-hybrid library CCmax.

In another assay the target is T26, 4H2648-AA.
T26 chain: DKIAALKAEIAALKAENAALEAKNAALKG
Kind of assay: two-hybrid library CCmax. The conditions noted are these: mean of both orientations.

The next assay concerns the target T27, 4H3162-AA.
T27 chain: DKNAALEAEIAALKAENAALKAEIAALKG
Kind of assay: two-hybrid library CCmax. The conditions noted are these: mean of both orientations.

A further assay deals with T28, 4H982-AA.
T28 chain: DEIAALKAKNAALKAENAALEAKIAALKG
Briefly: two-hybrid library CCmax. The conditions noted are these: mean of both orientations.

A further assay deals with T29, 4H3631-AA.
T29 chain: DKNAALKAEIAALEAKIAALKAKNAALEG
Kind of assay: two-hybrid library CCmax. The conditions noted are these: mean of both orientations.

The next assay deals with T30, 4H3718-AA.
T30 chain: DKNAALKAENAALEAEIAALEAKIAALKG
Kind of assay: two-hybrid library CCmax. The conditions noted are these: mean of both orientations.

For a further assay, the target named is T31, 4H3588-AA.
T31 chain: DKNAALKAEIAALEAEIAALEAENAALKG
Briefly: two-hybrid library CCmax. As to conditions: mean of both orientations.

For a further assay, the target named is T32, 4H3606-AA.
T32 chain: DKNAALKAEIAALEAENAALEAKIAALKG
Briefly: two-hybrid library CCmax. As to conditions: mean of both orientations.

The next assay deals with T33, 4H2553-AA.
T33 chain: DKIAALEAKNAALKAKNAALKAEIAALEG
Briefly: two-hybrid library CCmax. As to conditions: mean of both orientations.

A further assay has as its target T34, 4H2620-AA.
T34 chain: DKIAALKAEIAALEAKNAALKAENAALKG
Kind of assay: two-hybrid library CCmax. As to conditions: mean of both orientations.

In a further assay the target is T35, 4H3133-AA.
T35 chain: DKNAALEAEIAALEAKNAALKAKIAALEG
Kind of assay: two-hybrid library CCmax. The conditions noted are these: mean of both orientations.

A further assay has as its target T36, 4H3378-AA.
T36 chain: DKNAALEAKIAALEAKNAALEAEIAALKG
Kind of assay: two-hybrid library CCmax. The conditions noted are these: mean of both orientations.

A further assay deals with T37, 4H384-AA.
T37 chain: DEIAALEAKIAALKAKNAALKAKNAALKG
Briefly: two-hybrid library CCmax. As to conditions: mean of both orientations.

The target of the next assay is T38, 4H3413-AA.
T38 chain: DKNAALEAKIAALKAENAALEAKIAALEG
Kind of assay: two-hybrid library CCmax. As to conditions: mean of both orientations.

The target in another assay is T39, 4H340-AA.
T39 chain: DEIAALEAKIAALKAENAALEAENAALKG
Kind of assay: two-hybrid library CCmax. As to conditions: mean of both orientations.

The next assay concerns the target T40, 4H2611-AA.
T40 chain: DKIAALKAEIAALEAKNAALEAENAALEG
Kind of assay: two-hybrid library CCmax. The conditions noted are these: mean of both orientations.

The target in a further assay is T41, 4H697-AA.
T41 chain: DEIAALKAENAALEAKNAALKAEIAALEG
Briefly: two-hybrid library CCmax. The conditions noted are these: mean of both orientations.

Another assay deals with T42, 4H3056-AA.
T42 chain: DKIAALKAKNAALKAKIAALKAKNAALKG
Kind of assay: two-hybrid library CCmax. The conditions noted are these: mean of both orientations.

The next assay has as its target T43, P6bHq.
T43 chain: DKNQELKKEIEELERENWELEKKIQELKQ
Briefly: two-hybrid library CCNG1.

Another assay has as its target T44, P9bHq.
T44 chain: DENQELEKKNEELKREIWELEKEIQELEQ
Briefly: two-hybrid library CCNG1.

The target in another assay is T45, P8bHq.
T45 chain: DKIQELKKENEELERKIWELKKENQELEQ
Kind of assay: two-hybrid library CCNG1.

A further assay deals with T46, P7bHq.
T46 chain: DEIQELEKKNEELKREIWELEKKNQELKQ
Kind of assay: two-hybrid library CCNG1.

Take DKIQELKKENEELEREIWELKKKIQELKR [4H2702-bH]: the interaction score in the assay with 4H2702-bH is 1.55; with 4H797-bH, -0.247; with 4H953-bH, 0.896; with 4H3010-bH, 1.37; with 4H3427-bH, 0.468; with 4H855-bH, -0.0377. The interaction score in the assay with 4H3112-bH was 0.549; in the assay with 4H918-bH it was -0.77; with 4H4073-bH it was 0.92; in the assay with 4H968-bH, 0.8; in the assay with 4H575-bH, -2.01; in the assay with 4H683-bH, -0.558. For the same molecule, the interaction score with 4H754-bH is -0.588; in the assay with 4H457-bH, 1.57; with 4H3926-bH, 0.525; with 4H780-bH it was -0.871; in the assay with 4H346-bH, 0.405.

For DENAALKAEIAALKAENAALKAKIAALEG [4H1629-AA], the interaction score with 4H3865-AA is -0.375; with 4H32-AA it was -1.13; with 4H2198-AA, -1.33; in the assay with 4H2907-AA, -1.89; with 4H1874-AA it was -0.00053; with 4H1845-AA, -1.22. The interaction score with 4H3697-AA is -0.847; in the assay with 4H1629-AA it was 2.04; with 4H2648-AA, -1.18; in the assay with 4H3162-AA, -0.752; in the assay with 4H982-AA, -1.55; in the assay with 4H3631-AA, -1.7. In addition, the interaction score was -1.62 with 4H3718-AA; -1.46 in the assay with 4H3588-AA; 0.462 with 4H3606-AA; -1.61 in the assay with 4H2553-AA; -1.66 in the assay with 4H2620-AA; -1 with 4H3133-AA. The interaction score with 4H3378-AA was -1.39; with 4H384-AA it was -1.82; in the assay with 4H3413-AA, -0.212; in the assay with 4H340-AA, -1.67; with 4H2611-AA, -1.42; with 4H697-AA it was -1.58. Besides, in the assay with 4H3056-AA, the interaction score was -1.6.

Turning to DKNQELKKEIEELERENWELEKKIQELKQ [P6bHq], the interaction score was 1.03 with P6bHq, -0.205 with P9bHq, 1 in the assay with P8bHq and 0.113 with P7bHq.
